Data on two molecules can be found in patent US20240132603A1 (HARBOUR BIOMED US, published 2024).

One may read the EC50 as the concentration giving half of the maximal effect. Usually EC50 (read off the curve) stands for the concentration giving half of the maximal effect. As usually defined, the Kd is the constant that tells how readily two partners part at equilibrium.

In experiment [1] the target is T1, human CCR8 (human, UniProt P51685 1-355).
T1 construct: whole, on cells; construct used for the overexpressing cell lines is not described; also called hCCR8
T1 sequence (P51685 whole entry): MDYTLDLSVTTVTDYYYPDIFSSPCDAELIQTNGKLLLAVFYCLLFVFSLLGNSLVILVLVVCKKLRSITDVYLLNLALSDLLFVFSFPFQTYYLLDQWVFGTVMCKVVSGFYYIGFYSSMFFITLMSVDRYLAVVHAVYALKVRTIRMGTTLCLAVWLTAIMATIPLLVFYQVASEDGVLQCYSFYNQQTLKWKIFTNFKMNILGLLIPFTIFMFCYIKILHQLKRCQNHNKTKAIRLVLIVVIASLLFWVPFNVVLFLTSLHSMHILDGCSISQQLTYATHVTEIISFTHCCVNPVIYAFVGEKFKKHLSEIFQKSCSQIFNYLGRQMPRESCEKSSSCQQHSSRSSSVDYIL
The experiment in a line: FACS, HEK293-hCCR8 cells. Here is the method: (§1) Cells overexpressing human CCR8 were digested with pancreatin, counted and resuspended to a cell density of 1E6 cells/mL. The cell suspension was added to a 96-well V-bottom plate at 100 μL/well and centrifuged at 300 g for 5 min, and the supernatant was discarded. The anti-CCR8 antibodies provided herein was used as a primary antibody and diluted in a 5-fold gradient with an FACS buffer (DPBS containing 2% FBS) from 200 nM. The diluted primary antibody was added at 100 μL/well to resuspend the cells, and the mixture was incubated at 4° C. for 1 h. The plate was washed twice with DPBS and centrifuged at 300×g for 5 min, and the supernatant was discarded. The secondary antibody diluted in a 1:1000 ratio with an FACS buffer was added at 100 μL/well to suspend the cells, and the mixture was incubated at 4° C. for 40 min. The plate was washed twice with DPBS and centrifuged at 300×g for 5 min, and the supernatant was discarded. DPBS was added at 200 μL/well to suspend the cells, and the mixture was loaded on an FACS machine for analysis.
In general terms: Flow cytometry measures light scatter and fluorescence of single cells or particles in a stream.

In experiment [2] the target is T1, human CCR8. The experiment in a line: cell-based or functional assay.
The target of experiment [3] is T1, human CCR8. The experiment in a line: FACS competition on HEK293-hCCR8 cells against a biotin-labelled anti-CCR8 antibody at its EC80; the labelled antibody of this panel is not named on the sheet. Here is the method:
(§2) The antibody was conjugated with Sulfo-NHS-LC-Biotin at a molar ratio of 5:1 (1 mol antibody was added to 5 mol Sulfo-NHS-LC-Biotin) with reference to the product instructions (ThermoFisher, Cat No. A39257) and incubated on ice for 2 h. The coupled antibody was purified with a Zeba desalting column (ThermoFisher, Cat No. 89882). Cells overexpressing human CCR8, HEK293-hCCR8, were added to a V-bottom 96-well plate at a density of 1E5 cells/well and centrifuged at 300 g for 5 min, and the supernatant was discarded. The competitive antibody was serially diluted in a ratio of 1:10 from 200 nM to obtain 8 concentration points. The Biotin-antibody and the competition antibody were mixed in a 1:1 ratio on an HEK293 cell line overexpressing human CCR8 by the binding EC₈₀ concentration. The cells in the 96-well plate were resuspended and incubated at 4° C. for 1 h. The plate was washed twice with DPBS at 200 μL/well. The secondary antibody diluted in a 1:1000 ratio was added at 100 μL/well, and the mixture was incubated at 4° C. for 40 min. The plate was washed twice with DPBS at 200 μL/well. Finally, DPBS was […] at 200 μL/well to suspend the cells, and the mixture was loaded on an FACS machine for analysis.

Experiment [4] concerns the target T1, human CCR8. The experiment in a line: FACS on HEK293 cells overexpressing human CCR8. As for the experimental part: as §1
Experiment [5] concerns the target T1, human CCR8. The experiment in a line: FACS, Baf3-hCCR8 cells. Summed up:
(§3)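 Primary Ab 5-fold titration from 200 nM (DPBS/2% FBS), 1 h 4 °C; secondary 1:1000, 40 min 4 °C; 2× DPBS washes; flow cytometry read-out.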

The target in experiment [6] is T1, human CCR8. The experiment in a line: FACS competition on HEK293-hCCR8 cells against a biotin-labelled anti-CCR8 antibody at its EC80; the labelled antibody of this panel is not named on the sheet. As for the experimental part:
as §2
This is another data set of the same source.

The target of experiment [7] is T1, human CCR8. The description is as above. Here is the method:
as §2
This is another data set of the same source.

Experiment [8] deals with T1, human CCR8. The experiment is described as above. As for the experimental part: as §2
The source holds these as a separate data set.

Experiment [9] addresses T1, human CCR8. The experiment in a line: FACS, CHO-K1-hCCR8 cells. In outline: as §3
The target in experiment [10] is T1, human CCR8. Nature of the experiment: FACS, HEK293-hCCR8 cells. Summed up: as §3
The source holds these as a separate data set.

The target in experiment [11] is T1, human CCR8. The experiment in a line: FACS competition on HEK293-hCCR8 cells against a biotin-labelled anti-CCR8 antibody at its EC80; the labelled antibody of this panel is not named on the sheet. Here is the method: as §2
The source holds these as a separate data set.

Experiment [12] has as its target T2, cynomolgus monkey CCR8 (cynomolgus monkey, UniProt G7NYJ2 1-355).
T2 construct: whole, on cells; also called CynoCCR8
The experiment in a line: FACS, CHO-K1-CynoCCR8 cells. Summed up: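 Anti-CCR8 antibodies titrated in 5-fold steps from 200 nM onto 1E6 cells/mL CHO-K1-CynoCCR8 in DPBS/2% FBS, 1 h at 4 °C. Bound antibody detected with 1:1000 secondary antibody, 40 min at 4 °C, then flow cytometry.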

Experiment [13] addresses T2, cynomolgus monkey CCR8. The experiment in a line: FACS, CHO-K1-CynoCCR8 cells. Here is the method: as §1, with “cynomolgus monkey CCR8, CHO-K1-CynoCCR8,” for “human CCR8”
The source holds these as a separate data set.

For experiment [14], the target named is T2, cynomolgus monkey CCR8. Nature of the experiment: KinExA, cell line overexpressing monkey CCR8; monkey CCR8 cell line. Here is the method: To 200 mg of PMMA hard beads was added 30 μg of Goat Anti-Human IgG Fc antibody, and the mixture was supplemented with a coating solution to 1.0 mL, with a buffer composition of 1×PBS, pH7.4, to ensure that the beads were completely suspended in the solution. After being spun at room temperature for 2 h, the beads were either allowed to settle naturally or centrifuged briefly at low speed, and the supernatant was removed. 1 mL of blocking buffer (1×PBS, pH7.4, containing 10 mg/mL BSA) was added to ensure that the beads were resuspended in the blocking solution, and the beads were spun at room temperature for 1 h. An appropriate concentration of PR005565, PR006155 or PR006166 was used as the 100% signal value, and PBS blank was used as the background value. The net signal values were detected using 0.5 μg/mL Alexa Fluor® 647 Goat Anti-Human IgG. The cell line overexpressing human or monkey CCR8 was collected by centrifugation at 1500 g for 5 min, washed 2 times with 2 PBS and centrifuged at 350 g. The cells were collected in a 1.5 mL centrifuge tube. 10 mL of 0.2 nM PR005565, PR006155 or PR006166 solution was prepared. The total cells were supplemented with 0.2 nM PR005565, PR006155 or PR006166 solution to 0.82 mL, and diluted in a 2-fold gradient with 0.2 nM PR005565, PR006155 or PR006166 as a buffer. […]
On the technique in general: Kinetic exclusion samples the free partner from a solution-phase mixture.

Where two headings read alike, the source gives them in different places.

T2 sequence (G7NYJ2 entry or part of it): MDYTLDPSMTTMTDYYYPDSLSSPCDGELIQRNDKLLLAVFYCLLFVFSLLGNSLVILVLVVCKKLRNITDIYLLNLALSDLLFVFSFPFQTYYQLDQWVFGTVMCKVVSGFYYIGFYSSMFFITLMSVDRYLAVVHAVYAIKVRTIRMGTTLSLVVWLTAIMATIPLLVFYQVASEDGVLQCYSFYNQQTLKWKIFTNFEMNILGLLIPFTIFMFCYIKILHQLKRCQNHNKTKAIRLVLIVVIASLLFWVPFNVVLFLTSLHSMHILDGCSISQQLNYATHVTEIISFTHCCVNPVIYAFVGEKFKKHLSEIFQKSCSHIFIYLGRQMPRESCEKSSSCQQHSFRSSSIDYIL

B1: PR004122 (antibody, human IgG1, kappa)
heavy: not shown
light: DIVMTQAAPSVPVTPGESVSISCRSSKSLLHSNGNTYLYWFLQRPGQSPQLLIYRMSNLASGVPDRFSGSGSGTAFTLRISRVEAEDVGVYYCMQHLEYPLTFGAGTKLELKRTVAAPSVFIFPPSDEQLKSGTASVVCLLNNFYPREAKVQWKVDNALQSGNSQESVTEQDSKDSTYSLSSTLTLSKADYEKHKVYACEVTHQGLSSPVTKSFNRGEC
notes: chimeric, human IgG1 constant region
Take B1: the concentration giving a half-maximal response (EC50) amounted to 0.99 nM in the experiment with human CCR8 [1]; 0.17 nM in the experiment with human CCR8 [5]; 0.5 nM with human CCR8 [9]; 0.66 nM in the experiment with human CCR8 [10]; 1.06 nM with cynomolgus monkey CCR8 [12]; 2.83 nM in the experiment with cynomolgus monkey CCR8 [13]. In the experiment with human CCR8 [2], the “Bottom %, blocking of CCL1-stimulated calcium flux” value came to 12%. For the same molecule, the “IC50(nM), blocking of CCL1-stimulated calcium flux” value in the experiment with human CCR8 [2] worked out at 1.47 nM. The “IC50 (read off the curve)” value with human CCR8 [3] is roughly 2 nM; with human CCR8 [6], roughly 3 nM; in the experiment with human CCR8 [7], 1 to 2 nM; in the experiment with human CCR8 [8], roughly 2 nM; in the experiment with human CCR8 [11], roughly 2 nM. Moreover, in the experiment with human CCR8 [4], the “EC50 (read off the curve)” value was roughly 1 nM.

B2: PR006166 (antibody, human IgG1, kappa)
heavy: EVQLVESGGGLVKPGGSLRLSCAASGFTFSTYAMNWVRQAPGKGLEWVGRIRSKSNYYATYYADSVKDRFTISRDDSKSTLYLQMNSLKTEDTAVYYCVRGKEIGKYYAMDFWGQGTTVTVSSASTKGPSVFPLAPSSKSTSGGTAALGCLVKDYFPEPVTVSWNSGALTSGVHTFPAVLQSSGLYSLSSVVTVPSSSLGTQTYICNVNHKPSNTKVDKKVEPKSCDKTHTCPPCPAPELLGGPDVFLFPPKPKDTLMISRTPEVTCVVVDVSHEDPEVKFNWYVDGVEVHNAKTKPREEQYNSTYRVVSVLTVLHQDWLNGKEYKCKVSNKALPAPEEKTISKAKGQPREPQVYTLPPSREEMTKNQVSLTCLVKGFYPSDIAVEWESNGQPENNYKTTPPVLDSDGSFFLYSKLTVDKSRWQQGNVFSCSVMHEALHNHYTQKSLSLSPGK
light: DIVMTQSPLSLPVTLGQPASISCRSSKSLLHSNAKIYLYWFQQRPGQSPRLLIYRMSNLASGVPDRFSGSGSGTDFTLKISRVEAEDVGVYYCMQHLEYPLTFGQGTKLEIKRTVAAPSVFIFPPSDEQLKSGTASVVCLLNNFYPREAKVQWKVDNALQSGNSQESVTEQDSKDSTYSLSSTLTLSKADYEKHKVYACEVTHQGLSSPVTKSFNRGEC
For the molecule B2, the EC50 in the experiment with human CCR8 [9] amounted to 0.49 nM; with cynomolgus monkey CCR8 [12] it was 0.44 nM. For the same molecule, the equilibrium dissociation constant (Kd) with cynomolgus monkey CCR8 [14] was 0.0493 nM.
